Target: thrombin (UniProt P00734;P00734 328-363;364-622)
Experiment: SPR

Row | Binder | Kd
1 | GGTTGGTGTGGTTGG (structured_DNA, UNA-G at 6) [G6] | 287 ± 12.3 nM
2 | GGTTGGTGTGGTTGG (structured_DNA) [TBA] | 103 ± 5.1 nM
3 | GGTTGGTGTGGTTGG (structured_DNA, UNA-G at 2) [G2] | 298 ± 5.7 nM
4 | GGTTGGTGTGGTTGG (structured_DNA, UNA-G at 1) [G1] | 95.4 ± 3.9 nM
5 | GGTTGGTGTGGTTGG (structured_DNA, UNA-G at 10) [G10] | 222 ± 9.3 nM
6 | GGTTGGTGTGGTTGG (structured_DNA, UNA-G at 15) [G15] | 155 ± 7.4 nM
7 | GGTTGGTGTGGTTGG (structured_DNA, UNA-G at 8) [G8] | 913 ± 21.2 nM
8 | GGTTGGTGTGGTTGG (structured_DNA, UNA-G at 5) [G5] | 425 ± 17.7 nM
